Source: patent US20160039936A1, “FIBROBLAST GROWTH FACTOR RECEPTOR INHIBITION FOR THE TREATMENT OF DISEASE” (UNIVERSITY OF MIAMI, priority 2011, published 2016)

B1: FGF2: recombinant mouse FGF2 (Ala11-Ser154) (R&D Systems) (protein)
chain: ALPEDGGAAFPPGHFKDPKRLYCKNGGFFLRIHPDGRVDGVREKSDPHVKLQLQAEERGVVSIKGVCANRYLAMKEDGRLLASKCVTEECFFFERLESNNYNTYRSRKYSSWYVALKRTGQYKLGSKTGPGQKAILFLPMSAKS
B2: FGF23: recombinant mouse FGF23, 6His-tagged Tyr25-Val251 (Arg179Gln) (R&D Systems) (protein)
chain: YPDTSPLLGSNWGSLTHLYTATARTSYHLQIHRDGHVDGTPHQTIYSALMITSEDAGSVVITGAMTRRFLCMDLHGNIFGSLHFSPENCKFRQWTLENGYDVYLSQKHHYLVSLGRAKRIFQPGTNPPPFSQFLARRNEVPLLHFYTVRPRRHTQSAEDPPERDPLNVLKPRPRATPVPVSCSRELPSAEEGGPAASDPLGVLRRGRGDARGGAGGADRCRPFPRFV
modifications: left off: small tags and cut ends

What was measured:
[1] = test system: neonatal mouse ventricular myocytes (NMVM); assay: Hypertrophic growth and β-MHC of isolated NMVM (wild-type or FGFR4−/−); format: cell-based; details: 48 h
Experimental: NMVM were isolated enzymatically (Kreusser et al., 2014). Briefly, hearts from 1-3 day-old mice were harvested, minced in PBS/glucose and further digested with collagenase type 2 (0.2% w/v) and DNase (0.05% w/v) on a rotary shaker at 37° C. for 11 minutes. Cells were then released from the tissue by triturating the suspension twice with a standard 10 ml plastic serological pipette, transferred to DF10 medium (Dulbecco's Modified Eagle Medium/Ham's Nutrient Mixture F12 adjusted to 17 mM NaHCO2 containing 2 mM L-glutamine, 1% P/S and 10% FBS), and stored on ice. The remaining tissue was further incubated in PBS/glucose/collagenase/DNase solution on a rotary shaker at 37° C. for 11 minutes. The trituration and incubation steps were repeated 5-7 times until the tissue was completely dissolved. Cells were pelleted at 300 g for 5 minutes, resuspended in DF20 media (Dulbecco's Modified Eagle Medium/Ham's Nutrient Mixture F12 adjusted to 17 mM NaHCO2 containing 2 mM L-glutamine, 1% P/S and 20% FBS), and preplated for 1 hour to eliminate fibroblasts. Remaining cells were counted using a hemocytometer and plated on glass and plastic surfaces, which were coated with laminin (Sigma-Aldrich; 10 μg/ml in PBS) at room temperature for 1 hour prior to plating. For immunofluorescence analysis, 3×10^5 cells were seeded per well on glass coverslips in 24-well plates. For Western blot analyses of total protein extracts, 5×10^6 cells were seeded in 10 cm-culture dishes. Cells were left undisturbed in DF20 medium at 37° C. for 72 hours, starved overnight with DF medium (Dulbecco's Modified Eagle Medium/Ham's Nutrient Mixture F12 adjusted to 17 mM NaHCO2 containing 2 mM L-glutamine, 1% P/S), and treated in DF medium with recombinant FGF23, FGF2 (both at 100 ng/ml) or AngII (1 μM, Sigma-Aldrich) for 48 hours.
(§1) HEK293 cells, NRVM or NMVM were treated with growth factors for 30 minutes to analyze activation of signal transduction mediators, or for 48 hours to analyze expression levels of hypertrophic marker proteins. Cells were scraped from 6-well plates using 500 μl CHAPS extraction buffer (20 mM Tris-HCl pH7.5, 500 mM NaCl, 0.5% CHAPS, protease inhibitor cocktail (Roche), protein phosphatase inhibitors [Sigma-Aldrich]) and incubated on ice for 30 minutes. The cell lysate was centrifuged at 14,000 rpm and 4° C. for 30 minutes, and the supernatant boiled in sample buffer and analyzed by SDS-PAGE and immunoblotting. For protein extraction from mouse hearts, tissue was isolated, minced and homogenized in RIPA extraction buffer (50 mM Tris-HCl pH 7.5, 200 mM NaCl, 1% Triton X-100, 0.25% DOC, 1 mM EDTA, 1 mM EGTA, protease and phosphatase inhibitors) at 1:10 (w:v), and protein lysates were prepared as described above.
Cultured cells were fixed in 2% PFA (in 5 mg/ml sucrose) for 5 minutes and permeabilized in 1% Triton X-100 (in PBS) for 10 minutes. We analyzed hypertrophic growth of isolated NRVM and NMVM on laminin-coated glass coverslips after 48 hours of treatment with growth factors. For FGFR4 expression and localization analyses, untreated NMVM from wild-type and FGFR4^−/− mice were immunolabeled. The mouse monoclonal antibody against sarcomeric α-actinin (EA-53; Sigma-Aldrich) was used at 1:1,000, and rabbit polyclonal anti-FGFR4 (C-16; Santa Cruz) at 1:50. Cy3-conjugated goat-anti mouse and Alexa488-conjugated goat-anti rabbit (Jackson Immuno Research) were used as secondary antibodies at 1:300. To visualize nuclei, fixed cells were incubated with 4′,6-diamidino-2-phenylindole (DAPI; 400 ng/ml in PBS) for 10 minutes. Immunofluorescence images were taken on a Leica TCS-SP5 confocal microscope with a 63× oil objective.
Myocyte cross-sectional area was measured based on α-actinin-positive staining using Leica AF6000 fluorescence software. […]

HEK293 cells = assay: FGF-FGFR-dependent signaling in HEK293 cells (Western blot, immunoprecipitation); format: cell-based; details: for phosphorylated PLCγ levels / phosphorylation of FRS2γ (FGF2: FRS2γ and ERK1/2): HEK293, untransfected, 30 minutes
Experimental: HEK293 cells were grown in 6-well plates or 10 cm-culture dishes and transiently transfected with FuGene 6 (Roche) according to the manufacturer's protocol. After 36 hours, cells were serum-starved for 12-16 hours followed by treatment with FGF23 or FGF2 at 25 ng/ml for 15 or 30 minutes.
as §1
Antibodies to β-MHC (NOQ7.5.4D; Sigma-Aldrich; 1:1,000), RCAN1 (rabbit polyclonal, provided by Timothy McKinsey, University of Colorado, Denver, Colo. (Harrison et al., 2004); 1:1,000), FGFR4 (C-16; Santa Cruz; 1:1,000), total and phospho-ERK1/2 (Cell Signaling; 1:1,000), total and phospho-FRS2α (Santa Cruz 1:1,000; Cell Signaling; 1:1,000), total and phospho-PLCγ (Cell Signaling; 1:1,000), FLAG (M5, Sigma-Aldrich; 1:10,000), V5 (Sigma-Aldrich; 1:10,000) and GAPDH (Abcam; 1:10,000) were used as primary antibodies in 5% milk in TBST (RCAN1, FGFR4, FLAG, V5), 5% BSA in TBST (phospho-FRS2α) or 1.5% FBS in TBS (β-MHC, total and phospho-ERK1/2, total FRS2α, total and phospho-PLCγ, GAPDH) for 1-2 hours. Horseradish peroxidase-conjugated goat-anti-mouse and goat-anti-rabbit (Promega; 1:10,000) were secondary antibodies.
HEK293 cells in 10 cm-dishes were treated with growth factors for 30 minutes, cells were scraped using 1 ml IP buffer (50 mM Tris-HCl pH7.5, 150 mM NaCl, 5 mM MgCl2, 2 mM EGTA, 1% Triton X-100, 5% Glycerol, protease and phosphatase inhibitors), and protein lysates were prepared as described above. V5-tagged proteins were immunoprecipitated using 25 μl of anti-V5 agarose beads (Sigma-Aldrich). After 5 washes in IP buffer, proteins were eluted in 100 μl of sample buffer and analyzed by SDS-PAGE and immunoblotting. For endogenous immunoprecipitation studies from NRVM, cells in 10cm-dishes were treated with growth factors for 30 minutes. Some cells were pre-treated with FGFR4 blocking antibody at 10 μg/ml for 1 hour (human monoclonal, U3-11; U3Pharma). Cells were scraped in 1 ml RIPA buffer, and protein lysates were incubated with 2 μg of anti-FGFR4 (C-16; Santa Cruz) or anti-GFP (Clonetech) as negative control at 4° C. under rotation overnight. We added 50 μl of a 1:1 mix of Protein A on sepharose beads and Protein G on agarose beads that were previously equilibrated in RIPA buffer, followed by incubation at 4° C. under rotation for 2 hours, protein elution in sample buffer, and SDS-PAGE and Western blot analyses.

Molecule	expression of β-MHC protein in FGFR4−/− NMVM ([1]; immunoblot)	expression of β-MHC protein in wild-type NMVM ([1]; immunoblot)	cross-sectional area (size) of NMVM from FGFR4−/− mice ([1]; FGF 100 ng/ml, AngII 1 μM)	cross-sectional area of wild-type NMVM ([1]; FGF 100 ng/ml, AngII 1 μM)	FGF2-mediated FRS2α/Ras/MAPK signaling (HEK293 cells; HEK293, presence or absence of α-klotho or β-klotho)	phosphorylated PLCγ levels (HEK293 cells)	phosphorylation of FRS2γ (FGF2: FRS2γ and ERK1/2) (HEK293 cells)	phospho-PLCγ levels (HEK293 cells; HEK293 overexpressing FGFR4Arg385, 30 minutes)	ERK1/2 phosphorylation (HEK293 cells; HEK293 overexpressing V5-tagged FGFR4)	phosphorylation of PLCγ (HEK293 cells; HEK293 overexpressing ectopic β-klotho)	FGFR isoform binding to PLCγ (co-precipitation) (HEK293 cells; HEK293 transfected with V5-tagged FGFR1-4, 30 minutes)	levels of phospho-ERK and Egr-1 (HEK293 cells; HEK293 transiently expressing FLAG-tagged klotho)	activation of PLCγ (HEK293 cells; HEK293 with ectopic α-klotho)	phosphorylation of FRS2α and ERK1/2 (HEK293 cells; HEK293 with ectopic α-klotho)
B1	induced this effect	increased expression	increase the size	significant increases	unaffected	had no effect	increased	–	–	–	–	–	–	–
B2	–	increased expression	–	significant increases	–	increased	did not induce	further increased	does not increase	induced phosphorylation	only FGFR4 bound PLCγ	increased levels	did not activate	increased
